Data: EP4669352A1 (dated 2025)

Tests used:
[1] = target: T1, H3 protein (vaccinia virus, UniProt P07240 1-278); experiment: ELISA on recombinant protein
T1 sequence: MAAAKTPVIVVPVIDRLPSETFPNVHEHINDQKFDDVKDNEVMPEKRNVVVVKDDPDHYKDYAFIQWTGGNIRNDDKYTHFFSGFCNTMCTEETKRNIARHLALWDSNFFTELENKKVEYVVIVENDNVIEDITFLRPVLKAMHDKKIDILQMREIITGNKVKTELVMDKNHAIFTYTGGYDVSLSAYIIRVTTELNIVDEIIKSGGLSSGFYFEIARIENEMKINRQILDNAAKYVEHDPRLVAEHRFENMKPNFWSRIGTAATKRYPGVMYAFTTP

[2] = target: T2, VACV A33 recombinant protein (vaccinia virus, UniProt P68616 89-185)
[3] = target: T1, H3 protein; experiment: ELISA on recombinant VACV surface proteins
[4] = target: T3, A27 protein (vaccinia virus, UniProt P11258 1-110); experiment: ELISA on recombinant VACV surface proteins
T3 sequence: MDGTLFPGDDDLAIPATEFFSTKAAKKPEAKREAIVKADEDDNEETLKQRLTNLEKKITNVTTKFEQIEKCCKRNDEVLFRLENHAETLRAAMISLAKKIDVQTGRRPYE

[5] = target: T4, L1 protein (vaccinia virus, UniProt P07612 1-183); experiment: ELISA on recombinant VACV surface proteins
T4 sequence: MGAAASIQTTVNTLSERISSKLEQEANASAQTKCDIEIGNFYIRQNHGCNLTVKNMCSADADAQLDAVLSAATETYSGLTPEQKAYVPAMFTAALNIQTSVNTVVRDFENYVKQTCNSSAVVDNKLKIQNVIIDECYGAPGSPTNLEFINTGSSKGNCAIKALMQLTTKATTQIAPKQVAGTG

[6] = target: B5 protein (vaccinia virus, UniProt Q01227 18-279); experiment: ELISA on recombinant VACV surface proteins
[7] = target: T2, VACV A33 recombinant protein; experiment: ELISA on recombinant VACV surface proteins

B1: MV31 (antibody, V domains shown)
VH: EVQLAESGGGLVPPDGSLRLSCTASGFTFSNYWMYWFRQAPGKGLEWVASISGSRRNIDYSDSVKGRFTISRDNAKNTLFLQMNRLRGDDTAVYYCAREGETSTYFFDPWGQGVLVTASS
VL: QPVLTQPPTVSKSLGQSVTISCTGTSSDVGGYNYVSWYQQRPGKAPKLLIYEVTKRPSGVSDRFSGSKSGNTASLTISGLQAEDEADYYCSSYTTSNTYIFGTGTRLTVL
B1: binds [1].

B2: EV42 (antibody, V domains shown)
VH: EVQLVESGPRLVKPSETLSLTCAVSGASITSNYWSWIRQPPGKGLEWIGRTPGSSGSTDYNPSLKSRVTISTDTSKNQFSLKLTSVTAADTAVYFCARRYTDSYYLYYFDFWSQGVLVTVSS
VL: QSALTQPPSVSGSPGQSVTISCTGTNSDIGSYKYVSWYQKHPGKAPKLVIYDVSQRPSGVSDRFSGSKSGNTASLTISGLQAEDEADYYCSSYAGINTFNVFGSGTKLTIL
In the case of B2, the Kd [2] is reported as 0.095 nM.

B3: MV7 (antibody, V domains shown)
VH: QEQLVQSGGGLAKPGGSLRISCAASGFVFSRSAMHWVRQAPGKGLEWVSGISGGGATYYADSVKGRFTISRDNSKNTFSLQMNSLRLEDTAVYYCAKDRRRSVASSYFDSWGQGVLVTVSS
VL: QSVLTQPQSVSVSPGQTARISCGGDNIGSKNVHWYQQKPPQAPVLVIYAGTERPSGIPERFSGSNSGNTATLTISGVEAGDEADYYCQVWDGTREHVLFGGGTRLTVL
B3: binds [1].

B4: MV26 (antibody, V domains shown)
VH: EVQLAESGGGLVQPGGSLRLSCAASGFTFSNYWMYWFRQAPGKGLEWVSSISGSRRNIHYSDSVRGRFTVSRDNAKSTLSLQMNSLRPEDTAVYYCAREGETSTFYFGYWGQGVLVTASS
VL: KPMLTQPPSVSVSPGQTARITCGGDNLGTKNVQWYQQKSAQAPVVVIYDDGERPSGIPERFSGSKSGNVATLTISGVEAGDDADYYCQVWDGSSDHPIFGRGTRLTVL
B4: binds [1].

B5: EV4 (antibody, V domains shown)
VH: QVQLQESGPGLVKPSETLSLTCAVSGGSISNNYWSWVRQAPGKGLEWIGRIYGSSGSSSYNPSLTGRLTISRDTSKNQLSLRLNSMTAADTAFYYCVRQYFGPRGAFDFWGQGLRVTVSS
VL: QPGLTQSPSASEAARKSVTISCSGSSSNIGSNSVSWYQQLPETAPKLLVYYNDRRASSVSDRFSGSKSGTSASLAISGLQTEDEADYYCAAWDNSLSGYVFGAGTRLTVL
B5: no binding [3]; no binding [4]; no binding [5]. B5: no binding [6]; no binding [7].
